Reference: publication PMC10716038, “Talin and kindlin use integrin tail allostery and direct binding to activate integrins” (Nature Structural & Molecular Biology, 2023)
Positions count from the first letter of the chain named. Names and notes keep the numbering of the source. Values joined by “and” are separate entries in the source; they are usually repeats but may differ in a detail not shown here. Equal values may be shown once. No end group written: not given here.

B1: THD1 K402E (domain or fragment, UniProt P26039 1-405, looked up)
chain: MVALSLKISIGNVVKTMQFEPSTMVYDACRMIRERIPEALAGPPNDFGLFLSDDDPKKGIWLEAGKALDYYMLRNGDTMEYRKKQRPLKIRMLDGTVKTIMVDDSKTVTDMLMTICARIGITNHDEYSLVRELMEEKKDEGTGTLRKDKTLLRDEKKMEKLKQKLHTDDELNWLDHGRTLREQGVEEHETLLLRRKFFYSDQNVDSRDPVQLNLLYVQARDDILNGSHPVSFDKACEFAGFQCQIQFGPHNEQKHKAGFLDLKDFLPKEYVKQKGERKIFQAHKNCGQMSEIEAKVRYVKLARSLKTYGVSFFLVKEKMKGKNKLVPRLLGITKECVMRVDEKTKEVIQEWSLTNIKRWAASPKSFTLDFGDYQDGYYSVQTTEGEQIAQLIAGYIDIILKEKKS
notes: talin-1 (TLN1) head domain, residues 1-405, K402E; source: E. coli (DE3) Rosetta 2, purified (IMAC, SEC); not shown: His10-SUMO, N-terminal, cleaved
B2: kindlin-2 (KIND2) (natural protein, UniProt Q8CIB5 1-680, looked up)
chain: MALDGIRMPDGCYADGTWELSVHVTDLNRDVTLRVTGEVHIGGVMLKLVEKLDVKKDWSDHALWWEKKRTWLLKTHWTLDKCGIQADAKLQFTPQHKLLRLQLPNMKYVKVKVNFSDRVFKAVSDICKTFNIRHPEELSLLKKPRDPTKKKKKKLDDQSEDEALELEGPLIMPGSGSIYSSPGLYSKTMTPTYDAHDGSPLSPTSAWFGDSALSEGNPGILAVSQPVTSPEILAKMFKPQALLDKAKTNQGWLDSSRSLMEQDVKENEALLLRFKYYSFFDLNPKYDAIRINQLYEQAKWALLLEEIECTEEEMMMFAALQYHINKLSIMTSENHLNNSDKEVDEVDAALSDLEITLEGGKTSTILGDITSIPELADYIKVFKPKKLTLKGYKQYWCTFKDTSISCYKSREESSGTPAHQLNLRGCEVTPDVNISGQKFNIKLLIPVAEGMNEIWLRCDNEKQYAHWMAACRLASKGKTMADSSYNLEVQNILSFLKMQHLNPDPQLIPDQITTDVNPECLVSPRYLKKYKSKQITARILEAHQNVAQMSLIEAKMRFIQAWQSLPEFGITHFIARFQGGKREELIGIAYNRLIRMDASTGDAIKTWRFSNMKQWNVNWEIKMVTVEFADEVRLSFICTEVDCKVVHEFIGGYIFLSTRAKDQNESLDEEMFYKLTSGWV
notes: kindlin-2 (KIND2), recombinant; with the F1 loop and the PH domain (unlike ΔKIND2); source: E. coli Rosetta, purified (IMAC, SEC); not shown: His10-SUMO, N-terminal, cleaved
B3: ATTO 488-labeled talin-binding-impaired β3-CT Y772A (peptide, UniProt O54890 741-787, looked up)
peptide: {ATTO 488}-KLLITIHDRKEFAKFEEERARAKWDTANNPLAKEATSTFTNITYRGT
notes: integrin β3 cytoplasmic tail (β3-CT), Y772A; source: synthetic peptide (MPIB Core Facility)
B4: KIND2 Y13A (natural protein, UniProt Q8CIB5 1-680, looked up)
chain: B2 chain with Y13A
notes: kindlin-2 (KIND2), recombinant, Y13A; source: E. coli Rosetta, purified (IMAC, SEC); not shown: His10-SUMO, N-terminal, cleaved

What was measured:
Conditions in all cases: both partners purified
[1] = molecular target: T1, biotinylated integrin β3 transmembrane and cytoplasmic tail polypeptide (β3-TM–CT) in nanodiscs (UniProt O54890 715-787, biotin (biotin-maleimide)); assay: flow cytometry-based reporter-displacement assay (FC-RDA) on beads; biotinylated TM–CT in 10% PIP2/90% DMPC nanodiscs on streptavidin beads; reporter 50 nM 647–KIND2, unlabelled competitor titrated; 20 mM Tris pH 7.5, 200 mM NaCl, room temperature; IC50 of individual experiments; charged lipids contribute to the binding
T1 construct: integrin β3 TM and CT, residues 715-787; embedded in MSP2N2 nanodiscs with 10% PIP2 or PIP3 and 90% DMPC; held on streptavidin beads; also called b3; source: E. coli BL21 (DE3) Rosetta 2, inclusion bodies, purified (IMAC, cation exchange)
T1 sequence (looked up): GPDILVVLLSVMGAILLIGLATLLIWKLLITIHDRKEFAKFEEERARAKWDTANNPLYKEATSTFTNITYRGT

[2] = molecular target: T2, biotinylated integrin β1 transmembrane and cytoplasmic tail polypeptide (β1-TM–CT) in nanodiscs (UniProt P09055 726-798, biotin (biotin-maleimide)); assay: as above
T2 construct: integrin β1 TM and CT, residues 726-798; embedded in MSP2N2 nanodiscs with 10% PIP2 or PIP3 and 90% DMPC, on average one TM–CT per nanodisc; held on streptavidin beads; also called b1; source: E. coli BL21 (DE3) Rosetta 2, inclusion bodies, purified (IMAC, cation exchange)

[3] = molecular target: T2, biotinylated integrin β1 transmembrane …; assay: flow cytometry-based reporter-displacement assay (FC-RDA) on beads; biotinylated TM–CT in 10% PIP3/90% DMPC nanodiscs on streptavidin beads; reporter 50 nM 647–KIND2, unlabelled competitor titrated; 20 mM Tris pH 7.5, 200 mM NaCl, room temperature; IC50 of individual experiments; charged lipids contribute to the binding
[4] = molecular target: T1, biotinylated integrin β3 transmembrane …; assay: as above
[5] = molecular target: T1, biotinylated integrin β3 transmembrane …; assay: flow cytometry-based reporter-displacement assay (FC-RDA) on beads; biotinylated TM–CT in 10% PIP3/90% DMPC nanodiscs on streptavidin beads; reporter 100 nM 565–THD1, unlabelled competitor titrated; 20 mM Tris pH 7.5, 200 mM NaCl, room temperature; IC50 of individual experiments; charged lipids contribute to the binding
[6] = molecular target: T1, biotinylated integrin β3 transmembrane …; assay: flow cytometry-based reporter-displacement assay (FC-RDA) on beads; biotinylated TM–CT in PIP2-containing nanodiscs on streptavidin beads; reporter 565–THD1-K402E, unlabelled competitor titrated; IC50 of individual experiments
[7] = molecular target: T2, biotinylated integrin β1 transmembrane …; assay: as above
[8] = molecular target: T2, biotinylated integrin β1 transmembrane …; assay: flow cytometry-based reporter-displacement assay (FC-RDA) on beads; biotinylated TM–CT in 10% PIP2/90% DMPC nanodiscs on streptavidin beads; reporter 50 nM 647–KIND2, unlabelled competitor titrated; 20 mM Tris pH 7.5, 200 mM NaCl, room temperature; IC50 of individual experiments; charged lipids contribute to the binding; remark: listed apart in the source
kindlin-2 (KIND2) [9] = molecular target: B2; assay: MST; apparent; KIND2 titrated to 488–β3-CT Y772A in the presence of 500 µM THD1; MST buffer
kindlin-2 (KIND2) [10] = molecular target: B2; assay: MST; unlabelled protein titrated to 50-200 nM ATTO 488-labelled β-CT peptide, no third protein; 20 mM Tris pH 7.5, 200 mM NaCl, 1 mM TCEP, 0.05% Tween-20; Kd of individual titrations (in S0002 mean and sd, n = 2)
[11] = molecular target: T1, biotinylated integrin β3 transmembrane …; assay: flow cytometry-based reporter-displacement assay (FC-RDA) on beads; biotinylated TM–CT in 10% PIP3/90% DMPC nanodiscs on streptavidin beads; reporter 100 nM 565–THD1, unlabelled competitor titrated; 20 mM Tris pH 7.5, 200 mM NaCl, room temperature; IC50 of individual experiments; charged lipids contribute to the binding; remark: listed apart in the source
[12] = molecular target: T2, biotinylated integrin β1 transmembrane …; assay: as above
[13] = molecular target: T1, biotinylated integrin β3 transmembrane …; assay: flow cytometry-based reporter-displacement assay (FC-RDA) on beads; biotinylated TM–CT in PIP3-containing nanodiscs on streptavidin beads; reporter 647–KIND2-Y13A, unlabelled competitor titrated; IC50 of individual experiments
[14] = molecular target: T2, biotinylated integrin β1 transmembrane …; assay: as above
[15] = molecular target: T1, biotinylated integrin β3 transmembrane …; assay: flow cytometry-based reporter-displacement assay (FC-RDA) on beads; biotinylated TM–CT in PIP2-containing nanodiscs on streptavidin beads; reporter 647–KIND2-Y13A, unlabelled competitor titrated; IC50 of individual experiments
[16] = molecular target: T2, biotinylated integrin β1 transmembrane …; assay: as above
[17] = molecular target: T2, biotinylated integrin β1 transmembrane …; assay: flow cytometry-based reporter-displacement assay (FC-RDA) on beads; biotinylated TM–CT in 10% PIP2/90% DMPC nanodiscs on streptavidin beads; reporter 100 nM 565–THD1, unlabelled competitor titrated; 20 mM Tris pH 7.5, 200 mM NaCl, room temperature; IC50 of individual experiments; charged lipids contribute to the binding

T2 sequence (P09055 726-798): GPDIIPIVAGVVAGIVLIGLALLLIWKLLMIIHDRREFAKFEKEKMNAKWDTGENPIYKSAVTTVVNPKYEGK

## B1
[1]
  IC50: 186 nM and 206 nM and 276 nM and 136 nM
[2]
  IC50: 271 nM and 366 nM and 201 nM and 258 nM
[3]
  IC50: 332 nM and 291 nM and 217 nM and 447 nM

## B2
[4]
  IC50: 79 nM and 90 nM and 69 nM
[5]
  IC50: 760 nM and 573 nM and 678 nM
[6]
  IC50: 116 nM and 65 nM
[7]
  IC50: 514 nM and 512 nM and 396 nM and 487 nM
[8]
  IC50: 151 nM and 155 nM and 176 nM and 77 nM

## B3
kindlin-2 (KIND2) [9]
  Kd: 17900 nM and 15300 nM and 23300 nM and 13400 nM
kindlin-2 (KIND2) [10]
  Kd: 20300 nM and 13800 nM and 12500 nM

## B4
[11]
  IC50: 176 nM and 234 nM and 205 nM and 83 nM
[12]
  IC50: 168 nM and 223 nM and 116 nM
[13]
  IC50: 121 nM and 167 nM and 233 nM
[14]
  IC50: 56 nM and 119 nM and 60 nM
[15]
  IC50: 112 nM and 238 nM and 305 nM
[16]
  IC50: 78 nM and 91 nM and 124 nM
[17]
  IC50: 203 nM and 479 nM and 290 nM
